Sequences and labels used below:
T1: full-length hCDCP1 with N-terminal c-Myc tag (expression vector GS01), on Ba/F3-hCDCP1 cells or … (human, UniProt Q9H5V8 30-836)
T1 construct: also called human CDCP1; hCDCP1 forced expression cells
T1 sequence: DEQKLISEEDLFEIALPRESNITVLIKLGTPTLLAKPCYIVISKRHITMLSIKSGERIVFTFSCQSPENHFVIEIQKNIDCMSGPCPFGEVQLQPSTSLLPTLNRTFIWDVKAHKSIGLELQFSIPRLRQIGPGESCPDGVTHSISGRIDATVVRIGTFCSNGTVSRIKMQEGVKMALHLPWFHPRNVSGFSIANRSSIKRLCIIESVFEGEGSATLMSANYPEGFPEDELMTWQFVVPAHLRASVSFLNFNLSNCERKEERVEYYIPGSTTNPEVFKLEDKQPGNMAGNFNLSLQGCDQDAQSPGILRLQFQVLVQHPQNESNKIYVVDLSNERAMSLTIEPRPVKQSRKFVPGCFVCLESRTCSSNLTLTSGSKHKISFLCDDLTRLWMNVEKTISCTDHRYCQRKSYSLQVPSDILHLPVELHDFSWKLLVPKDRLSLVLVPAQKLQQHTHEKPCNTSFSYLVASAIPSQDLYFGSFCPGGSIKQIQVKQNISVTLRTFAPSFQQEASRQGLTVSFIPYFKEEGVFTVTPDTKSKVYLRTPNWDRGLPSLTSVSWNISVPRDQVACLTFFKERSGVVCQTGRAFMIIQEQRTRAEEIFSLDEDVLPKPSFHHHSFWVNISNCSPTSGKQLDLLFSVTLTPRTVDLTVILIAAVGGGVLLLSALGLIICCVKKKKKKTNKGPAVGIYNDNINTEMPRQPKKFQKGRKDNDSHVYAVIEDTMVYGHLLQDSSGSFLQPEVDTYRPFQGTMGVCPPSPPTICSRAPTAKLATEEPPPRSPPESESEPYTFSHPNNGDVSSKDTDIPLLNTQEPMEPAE

B1: mh14A025HCv1/LCori (antibody, human IgG1, kappa, V domains shown)
VH: EVQLQESGAELVRPGALVKLSCKASGFNIKDYYMHWVKQRPEQGLEWIGWIDPESGNTIYDPKFQGKASITADTSSNTAYLQLSSLTSEDTAVYYCGGLLYAMDYWGQGTSVTVSS
VL: DIQMTQTTSSLSASLGDRVTISCRASQDISNYLNWYQQKPDGTVKLLIYFTSRLHSGVPSRFSGSGSGTDYSLTISNLEQEDIATYFCQQGNTLPRTFGGGTKLEIRR
notes: mouse-human chimeric antibody, human IgG1/kappa constant regions
B2: mh14A025HCv2/LCori (antibody, human IgG1, kappa, V domains shown)
VH: EVQLQESGAELVRPGALVKLSCKASGFNIKDYYMHWVKQRPEQGLEWIGWIDPENANTIYDPKFQGKASITADTSSNTAYLQLSSLTSEDTAVYYCGGLLYAMDYWGQGTSVTVSS
VL: DIQMTQTTSSLSASLGDRVTISCRASQDISNYLNWYQQKPDGTVKLLIYFTSRLHSGVPSRFSGSGSGTDYSLTISNLEQEDIATYFCQQGNTLPRTFGGGTKLEIRR
notes: as for B1
B3: mh14A025HCv7/LCori (antibody, human IgG1, kappa, V domains shown)
VH: EVQLQESGAELVRPGALVKLSCKASGFNIKDYYMHWVKQRPEQGLEWIGWIDPENENTIYDPKFQGKASITADTSSNTAYLQLSSLTSEDTAVYYCGGLLYAMDYWGQGTSVTVSS
VL: DIQMTQTTSSLSASLGDRVTISCRASQDISNYLNWYQQKPDGTVKLLIYFTSRLHSGVPSRFSGSGSGTDYSLTISNLEQEDIATYFCQQGNTLPRTFGGGTKLEIRR
notes: as for B1
B4: mh14A025HCv8/LCori (antibody, human IgG1, kappa, V domains shown)
VH: EVQLQESGAELVRPGALVKLSCKASGFNIKDYYMHWVKQRPEQGLEWIGWIDPEFGNTIYDPKFQGKASITADTSSNTAYLQLSSLTSEDTAVYYCGGLLYAMDYWGQGTSVTVSS
VL: DIQMTQTTSSLSASLGDRVTISCRASQDISNYLNWYQQKPDGTVKLLIYFTSRLHSGVPSRFSGSGSGTDYSLTISNLEQEDIATYFCQQGNTLPRTFGGGTKLEIRR
notes: as for B1
B5: mh14A025HCv5/LCori (antibody, human IgG1, kappa, V domains shown)
VH: EVQLQESGAELVRPGALVKLSCKASGFNIKDYYMHWVKQRPEQGLEWIGWIDPENDNTIYDPKFQGKASITADTSSNTAYLQLSSLTSEDTAVYYCGGLLYAMDYWGQGTSVTVSS
VL: DIQMTQTTSSLSASLGDRVTISCRASQDISNYLNWYQQKPDGTVKLLIYFTSRLHSGVPSRFSGSGSGTDYSLTISNLEQEDIATYFCQQGNTLPRTFGGGTKLEIRR
notes: as for B1
B6: mh12A041HCori/LCoriA (antibody, human IgG1, kappa, V domains shown)
VH: EVQLQESGPGILQPSQTLSLTCSFSGFSLSTSGMGVSWIRQPSGKGLEWLAHIYWDDDKRYNPSLKSRLTISKDTSSNQVFLKITSVDTADTATYYCARSGSYYGSSLDCWGQGTTLTVSS
VL: DVLMTQTPLSLPVSLGDQASISCRSSQSIVYSNGNTYLEWYLQKPGQSPKLLIYKVSNRFSGVPDRFSGSGSGTDFTLKISRVEAEDLGVYYCFQGSHVPWTFGGGTKLEIRR
notes: as for B1
B7: mh12A041HCv1/LCv2 (antibody, human IgG1, kappa, V domains shown)
VH: EVQLQESGPGILQPSQTLSLTCSFSGFSLSTSGMGVSWIRQPSGKGLEWLAHIYWDDDKRYNPSLKSRLTISKDTSSNQVFLKITSVDTADTATYYCARSGSYYGSSLDSWGQGTTLTVSS
VL: DVLMTQTPLSLPVSLGDQASISCRSSQSIVHSNANTYLEWYLQKPGQSPKLLIYKVSNRFSGVPDRFSGSGSGTDFTLKISRVEAEDLGVYYCFQGSHVPWTFGGGTKLEIRR
notes: as for B1
B8: mh12A041HCoriA/LCoriB (antibody, human IgG1, kappa, V domains shown)
VH: EVQLQESGPGILQPSQTLSLTCSFSGFSLSTFGMGVSWIRQPSGKGLEWLAHIYWDDDKRYNPSLKSRLTISKDTSSNQVFLKITSVDTADTATYYCARSGSYYGSSLDCWGQGTTLTVSS
VL: DVLMTQTPLSLPVSLGDQASISCRSSQNIVHSDGNTYLEWYLQKPGQSPKLLIYKVSNRFSGVPDRFSGSGSGTDFTLKISRVEAEDLGVYYCFQGSHVPWTFGGGTKLEIRR
notes: as for B1
B9: mh12A041HCori/LCv2 (antibody, human IgG1, kappa, V domains shown)
VH: EVQLQESGPGILQPSQTLSLTCSFSGFSLSTSGMGVSWIRQPSGKGLEWLAHIYWDDDKRYNPSLKSRLTISKDTSSNQVFLKITSVDTADTATYYCARSGSYYGSSLDCWGQGTTLTVSS
VL: DVLMTQTPLSLPVSLGDQASISCRSSQSIVHSNANTYLEWYLQKPGQSPKLLIYKVSNRFSGVPDRFSGSGSGTDFTLKISRVEAEDLGVYYCFQGSHVPWTFGGGTKLEIRR
notes: as for B1
B10: mh12A041HCv1/LCv1 (antibody, human IgG1, kappa, V domains shown)
VH: EVQLQESGPGILQPSQTLSLTCSFSGFSLSTSGMGVSWIRQPSGKGLEWLAHIYWDDDKRYNPSLKSRLTISKDTSSNQVFLKITSVDTADTATYYCARSGSYYGSSLDSWGQGTTLTVSS
VL: DVLMTQTPLSLPVSLGDQASISCRSSQSIVHSSGNTYLEWYLQKPGQSPKLLIYKVSNRFSGVPDRFSGSGSGTDFTLKISRVEAEDLGVYYCFQGSHVPWTFGGGTKLEIRR
notes: as for B1
B11: mh12A041HCori/LCoriB (antibody, human IgG1, kappa, V domains shown)
VH: EVQLQESGPGILQPSQTLSLTCSFSGFSLSTSGMGVSWIRQPSGKGLEWLAHIYWDDDKRYNPSLKSRLTISKDTSSNQVFLKITSVDTADTATYYCARSGSYYGSSLDCWGQGTTLTVSS
VL: DVLMTQTPLSLPVSLGDQASISCRSSQNIVHSDGNTYLEWYLQKPGQSPKLLIYKVSNRFSGVPDRFSGSGSGTDFTLKISRVEAEDLGVYYCFQGSHVPWTFGGGTKLEIRR
notes: as for B1
B12: mh12A041HCoriA/LCori (antibody, human IgG1, kappa, V domains shown)
VH: EVQLQESGPGILQPSQTLSLTCSFSGFSLSTFGMGVSWIRQPSGKGLEWLAHIYWDDDKRYNPSLKSRLTISKDTSSNQVFLKITSVDTADTATYYCARSGSYYGSSLDCWGQGTTLTVSS
VL: DVLMTQTPLSLPVSLGDQASISCRSSQSIVHSNGNTYLEWYLQKPGQSPKLLIYKVSNRFSGVPDRFSGSGSGTDFTLKISRVEAEDLGVYYCFQGSHVPWTFGGGTKLEIKR
notes: as for B1
B13: mh12A041HCoriA/LCoriA (antibody, human IgG1, kappa, V domains shown)
VH: EVQLQESGPGILQPSQTLSLTCSFSGFSLSTFGMGVSWIRQPSGKGLEWLAHIYWDDDKRYNPSLKSRLTISKDTSSNQVFLKITSVDTADTATYYCARSGSYYGSSLDCWGQGTTLTVSS
VL: DVLMTQTPLSLPVSLGDQASISCRSSQSIVYSNGNTYLEWYLQKPGQSPKLLIYKVSNRFSGVPDRFSGSGSGTDFTLKISRVEAEDLGVYYCFQGSHVPWTFGGGTKLEIRR
notes: as for B1
B14: mh12A041HCv1/LCori (antibody, human IgG1, kappa, V domains shown)
VH: EVQLQESGPGILQPSQTLSLTCSFSGFSLSTSGMGVSWIRQPSGKGLEWLAHIYWDDDKRYNPSLKSRLTISKDTSSNQVFLKITSVDTADTATYYCARSGSYYGSSLDSWGQGTTLTVSS
VL: DVLMTQTPLSLPVSLGDQASISCRSSQSIVHSNGNTYLEWYLQKPGQSPKLLIYKVSNRFSGVPDRFSGSGSGTDFTLKISRVEAEDLGVYYCFQGSHVPWTFGGGTKLEIKR
notes: as for B1
B15: mh12A041HCori/LCv1 (antibody, human IgG1, kappa, V domains shown)
VH: EVQLQESGPGILQPSQTLSLTCSFSGFSLSTSGMGVSWIRQPSGKGLEWLAHIYWDDDKRYNPSLKSRLTISKDTSSNQVFLKITSVDTADTATYYCARSGSYYGSSLDCWGQGTTLTVSS
VL: DVLMTQTPLSLPVSLGDQASISCRSSQSIVHSSGNTYLEWYLQKPGQSPKLLIYKVSNRFSGVPDRFSGSGSGTDFTLKISRVEAEDLGVYYCFQGSHVPWTFGGGTKLEIRR
notes: as for B1

The target of the assay is T1, full-length hCDCP1 with N-terminal …. As to the kind of experiment: flow cytometry on Ba/F3-hCDCP1 cells.
For the molecule B1, the binding result is listed as “binds”.

Take B2: the binding result is “binds”.

With B3, the binding result was “binds”.

Consider B4, for which the binding result was “binds”.

Consider B5, for which the binding result was “binds”.

Consider B6, for which the binding result is on record as “binds”.

With B7, the binding result is “binds”.

Turning to B8, the binding result is reported as “binds”.

B9: the binding result was “binds”.

Consider B10, for which the binding result was “binds”.

For B11, the binding result is recorded as “binds”.

Take B12: the binding result is “binds”.

Turning to B13, the binding result is reported as “binds”.

For the molecule B14, the binding result is on record as “binds”.

For the molecule B15, the binding result was “binds”.

The record behind these values is patent US20230050380A1 (CHIOME BIOSCIENCE, published 2023).
